Source: the DeepSol protein solubility set

assay: soluble on expression in E. coli; label from the status in PepcDB or PDB records

Sequence | soluble on expression in E. coli
MGSDKIHHHHHHMAEFFPEIPKIQFEGKESTNPLAFRFYDPNEVIDGKPLKDHLKFSVAFWHTFVNEGRDPFGDPTAERPWNRFSDPMDKAFARVDALFEFCEKLNIEYFCFHDRDIAPEGKTLRETNKILDKVVERIKERMKDSNVKLLWGTANLFSHPRYMHGAATTCSADVFAYAAAQVKKALEITKELGGEGYVFWGGREGYETLLNTDLGLELENLARFLRMAVEYAKKIGFTGQFLIEPKPKEPTKHQYDFDVATAYAFLKNHGLDEYFKFNIEANHATLAGHTFQHELRMARILGKLGSIDANQGDLLLGWDTDQFPTNIYDTTLAMYEVIKAGGFTKGGLNFDAKVRRASYKVEDLFIGHIAGMDTFALGFKIAYKLAKDGVFDKFIEEKYRSFKEGIGKEIVEGKTDFEKLEEYIIDKEDIELPSGKQEYLESLLNSYIVKTIAELR | not soluble
QGQPLANFEGGQPMEALQQWTAAVVKAVEGKLPGITGDDAEAEPAEDPRFEPATEALNAGDFDAAIAVYEEILRHEPKNQMALQARDNARLLSRLKDADRSVDPIAVADADLQDVDKAFAAADAEITTGKVEEAFDRLIELLPNEKVRTRLLELYSVFEPSDSRVQAARSKMASKLF | not soluble
MGSDKIHHHHHHACDGKVYKKGDKIMFGVPKVSGYLFVRTFTKDGKISTMPKENLASQEAVIVDIPDYDKKLFEGMGVYSEVETHPLVVVELDGRRLCININDALSQGNIVSEYFKSEVEGMVDLTSDLLFVYALKLNNVTVDDDVIVRYMAHCDKNLVEKNQADPFTMADLKKEYAAKLEKALGDVDFSKVFRIESQSEMLQYDMDKQIFPLKGLWCPQIKTDQPDALAKIGFCKWDDCVFRFVNIPEFMNVPCETARAKGFYDMRKVGKVPTYNTPLATSYTYIRFLDKKVQLPEKKNKVYHNGDIKSMSLADLYGKMAIEAQIIKMDVYHLPFLKISDFELFYNYLGSIEVK | not soluble
MAAYKLVLIRHGESAWNLENRFSGWYDADLSPAGHEEAKRGGQALRDAGYEFDICFTSVQKRAIRTLWTVLDAIDQMWLPVVRTWRLNERHYGGLTGLNKAETAAKHGEAQVKIWRRSYDVPPPPMEPDHPFYSNISKDRRYADLTEDQLPSCESLKDTIARALPFWNEEIVPQIKEGKRVLIAAHGNSLRGIVKHLEGLSEEAIMELNLPTGIPIVYELDKNLKPIKPMQFLGDEETVRKAMEAVAAQGKAKK | soluble
MIDLYYAPTPNGHKITLFLEEAELAYRLLKVDISKGNQFRPDFLAISPNNKIPAIVDHAPADGGQPLSLFESGEILLYLAEKSGKLLSGELRERHTTLQWLFWQVGGLGPMLGQNHHFNHFAPQAIPYAIERYQVETQRLYNVLNKRLETSPWLGGDHYSIADIASWPWVNAHQRQRIDLDTYPAVYNWFERIRTRPATARALLQAQLHCNSTKA | not soluble
MGSDKIHHHHHHAAEGRKDFNLYTLVPGSATVVLETDDLAGMIQGINELSCSKDRHFLYVSKLFSYLKLHLYTLLEDTPHGLSKQMNKVLLSFHEPDNDRNQVLYCSLGNGDYELVEKFIRKYCSSSFPSKLFDYKGEEIRIYPMPDDSFLACYFTSDFLVVSYQKKLIEQVIDARLSKKSLLTDASFAKVHEDKRARVAATIYARMQPLSMGKATDGIRSCTQLGGWTEFDMKMNGDAIYFSGVSHDTDTCLTFMNVLRQQQPVEDFPGDILPASTFFFNKRSVTDMQAMLDFTARQEYTTSTYSDYIRDRDGELLAYLKENAGGEIVTCLFHSTDTLSNPCAVMSIPLRDGQQAERVLQGMLRTAPKEVDGPPKPRTTFCKTPLRAYTLYVLPRNTLFTQLTGITESALYIYACFYEGRLVLAPDVESLTAYLRHLDKKEILDDTPGYEEAVVNLSPSYNFMMVADLGETFSQPENYVRLIPAFFFRNQEFFRHFILSAQFTCTDGIVYPNVVLIYKGESDDVS | not soluble
MRYSDGRYEADIDITVEEWKSMLQNPKIFGPKYLDMILKWYYEIDHRATSQAIMAKYPSELKGTPYNGYVIGLTNRIIKYLNRFEVIGTQGNESKFIVPFEGWYEDYKEGNHFVWKVRDELVQAIEELGLVDEKKFPSEEEELKSYSIENRKDGKIIMRYTTQYERNPINRRNAIRIHGTVCQGCGFDFEKVYGEIGKDYIEVHHIKPLYEGGGSVPINAETDLICVCANCHRMIHRRKDKVLSLKELQKLLLANKNLEHHHHHH | soluble
MGSDKIHHHHHHMVFFMLIIDVNHGALTLAEEYLNLGYEVDVWDIYQKIKKSEDFKVKYQKLKEKFGNKLNLFFEQPNFEKYDRVIAPIHCPIDVDFIPFTDAVSKILKEKFGNIHKKIINVTGVKGKTTTTSLINHILKDKYSTYLHNSNFGSIAPPTILKVLNSLDIDKYDFFIFETSLGLIKCKYGAITNVLENYKIAGGRKDALTAKFSSLKNAELSFINKRDINRYDLNINHKCLNVVDVDRAKILDKYPLKFKYFDEIFEFSKNIFGLHFVENSLFAIEICKNLVDMEEIRYRLKTFTIKNRMEIKEINKKILVKNINPGLDVKAISYAIKDFLEVFGGDIYIGGDFGIVCEEIDVKKLSEVLKRFNCRYIFVGEIGKELLNYLNGGYIKSYDENKIKRDSLVILREKIK | not soluble
MGPLWLDVAGYELSAEDRAILAHPTVGGVILFGRNYHDNQQLLALNKAIRQAAARPILIGVDQEGGRVQRFREGFSRIPPAQYYARAENGVELAEQGGWLMAAELIAHDVDLSFAPVLDMGFACKAIGNRAFGEDVQTVLKHSSAFLRGMKAVGMATTGKHFPGHGAVIADSHLETPYDERETIAQDMAIFRAQIEAGVLDAMMPAHVVYPHYDAQPASGSSYWLKQVLREELGFKGIVFSDDLSMEGAAVMGGPVERSHQALVAGCDMILICNKREAAVEVLDNLPIMEVPQAEALLKKQQFSYSELKRLERWQQASANMQRLIEQFSEHHHHHHHHHH | soluble
MGSDKIHHHHHHMPEPDPLRIKTFTTPKDLGEWLKVNHGSERELWVKIYKKNTGIESVTWNDVVIEVLCWGWIDGIKKSIDDQAYLQRITPRKMRSNWSKRNTEHAERLISEERMMESGLVHIRAAKSDGRWENAYVVSEMEVPADFLAALENKSNAKAFFETLNKSSRYVIAYGLISAKKPETRLRRFEKFMNMLVHEEKPK | not soluble
MEGLLMYDVHSKHADDFISHEEILETLAYADENKTNEALIDSILEKARLRKGLSHREASVLLACPIEEKNQEIYRLAEQIKKDFYGNRIVMFAPLYLSNYCVNGCTYCPYHLKNKHIARKQLTQEEIRKEVIALQDMGHKRLALEAGEDPVRNTIDYYLESIKTIYSIKHKNGAIRRVNINIAATTVDNYRLLKEAGIGTYILFQETYHKESYLALHPTGPKHDYNYHTEAMDRAMEGGIDDVGIGVLFGLDKYRYEFAGLLMHAEHLEAAFGVGPHTISVPRLRHADDINADEFDNGIDDDTFAKIVACIRIAVPYTGMIISTRESQKCRERVLHLGVSQISGGSRTSVGGYCEPEPDDAKSEQFDVSDTRTLDEVVRWLMEMDYIPSFCTACYREGRTGDRFMSLCKSGQIQNCCHPNALMTLKEYLMDYASPETKAIGDRLIDKEVLNVPNEKARAVVLENLRLIEQNNRRDFRF | not soluble
MGSSHHHHHHSSGLVPRGSHMVHAFPHGTTATPTAIAVPPSLRLPVIEAAFPRQLHPYWPKLQETTRTWLLEKRLMPADKVEEYADGLCYTDLMAGYYLGAPDEVLQAIADYSAWFFVWDDRHDRDIVHGRAGAWRRLRGLLHTALDSPGDHLHHEDTLVAGFADSVRRLYAFLPATWNARFARHFHTVIEAYDREFHNRTRGIVPGVEEYLELRRLTFAHWIWTDLLEPSSGCELPDAVRKHPAYRRAALLSQEFAAWYNDLCSLPKEIAGDEVHNLGISLITHHSLTLEEAIGEVRRRVEECITEFLAVERDALRFADELADGTVRGKELSGAVRANVGNMRNWFSSVYWFHHESGRYMVDSWDDRSTPPYVNNEAAGEK | soluble
MAMQAAKRANIRLPPEVNRILMIRNLPYKITAEEMYDIFGKYGPIRQIRVGNTPETRGTAYVVYEDIFDAKNACDHLSGFNVCNRYLVVLYYNANRAFQKMDTKKKEEQLKLLKEKYGINTDPPK | soluble
MGSDKIHHHHHHMENKSAVQLYLELLKKTILFEIWLEYEPYLPASLHISKELSYEPVTVPLPLFLKQYVENHNLKIVNPNVSNNERQGGKDWPRAAHSMVGRKRMNQLQEAMETVVRENIEGDFIETGVWRGGSCIFMNGFLQANNIYYRTVWVADSFEGLPAPNLEQYPKDYGDYLHTFDYLRVSLETVQENFRKYDLLNDQVKFLKGWFKDTLPSAPVEKIAIARLDGDMYESTMDSLVNLYDKVSTGGFIIIDDYGLITCAEAVTDFRSERNIKTPMTQIDDFGIYWRKE | not soluble
SLVNMNVPDMILYNGKITTLDPSQPEVSAIAITDGLITAVGGDELLNSATEKTKKIDLKRKRAIPGLNDSHIHVIRGGLHYNMELRWEGVPSITIALEMLKEQARRTPAPQWVRVVGGWSEFQFKERRMPTLEEINAVSEDTPVFVLHLYDRALVNRAGLRALGYTKDTPDPPGCLIERDKRGNPTGLLIANPNASILYSSLGKAPILNFDDQINSTRHFMRELNRLGITSAIDAGGGFQNYPDDYRVVEHLAEKEQLTLRIAYNLFTQNPNHEYEDFASWAKIVSPGQGNDKYKMNGAGEMLVFSAADFEKFQMPRPELATMMEADLKKVISLLVENRWPFRLHATYDESITRFLNVFEEVNKEIPFNGLRWWFDHAETISDRSMERVKALNGGIAIQDRMAFQGEYFVDLYGKEAAKRTPPIYRMLDLGIPVGAGSDATRVSSYNPWVALYWMVAGKTIGGLSIYDEKNKLDRKVALELYSKGSAWFSGDEGKKGTLAVGQFADIAVLSADYFTVPEEEIKDLESLLTIMGGQVVYGNDEFKNLSPELPPASPDWSPTGVYGYGGANLAHTILSHDSHDNKLHSCSNPLHQHTHTVIGKDGTKWGIGCTCFAF | soluble
MMKHVFQKGKDTSKPVLLLLHGTGGNELDLLPLAEIVDSEASVLSVRGNVLENGMPRFFRRLAEGIFDEEDLIFRTKELNEFLDEAAKEYKFDRNNIVAIGYSNGANIAASLLFHYENALKGAVLHHPMVPRRGMQLANLAGKSVFIAAGTNDPICSSAESEELKVLLENANANVTMHWENRGHQLTMGEVEKAKEWYDKAF | soluble
MAHHHHHHMGTLEAQTQGPGSMALNSAVILAGCGHMDGSEIREAVLVMLELDRHNVNFKCFAPNKNQKQVVDHKKKESVGEVRNILVESARIARGSVYDIEQIRVEEFDMLVIPGGYGVAKNFSNLFDEDKENDYILPEFKNAVREFYNAKKPIGAVCISPAVVVALLKDIAKVKVTIGEDSNGLIDKMGGVHVDCPTIKSVKDDVNRIFSCSAYMRNDSLYNVYLGIQDMISSMVNYLKSK | soluble
MNEFDRVRDYLTDLQDRICAAVEAIDGKARFAEDLWQRAEGGGGRTRILRDGAVFEQAGIGFSDVSGARLPPSASAHRPELAGATWRACGVSLVFHPHNPHIPTTHANVRYFRAERDGEMVAAWFGGGFDLTPFYPVDEDVMHWHRTAQALCAPFGEERYAAHKRWCDEYFFLRHRNETRGVGGLFFDDLGQDFERDFAYQRAVGDGFLDAYLPIVERRKDTPYGEAERAFQLYRRGRYVEFNLVYDRGTLFGLQSGGRAESILMSLPPQVRWEYGFQPQPGSAEARLADYLIPRDWLGLEHHHHHH | soluble
QEGYPFPSFHLRGTHPYRSILVSANTEALSPLLASAMDLARIFGSEVYVLFVSRVEAFMPPEEKELLENLKVLVERARKTSGLEVHLIRKEGNPVRETLRLLKGKFNLLALGYTPGRRTAFFRPYVPQLLAQASPVSTLLVPEVNLER | not soluble
